From article PMC4004597 come the findings set out here.

Test [1] deals with S. cerevisiae Nup57 of the short scNup49-Nup57-Nsp1 complex (S. cerevisiae) (UniProt P48837). Put plainly: SEC. For orientation: SEC sorts molecules by how far they enter the pores of the column.
For test [2] the target is unchanged. Put plainly: AUC.
The target of test [3] is S. cerevisiae Nsp1 of the short scNup49-Nup57-Nsp1 complex (S. cerevisiae) (UniProt P14907). Put plainly: SEC.
The target is the same in test [4]. Put plainly: AUC.

Sequence of S. cerevisiae Nup57 of the short scNup49-Nup57-Nsp1 complex (S. cerevisiae) (P48837 whole entry, one chain of several): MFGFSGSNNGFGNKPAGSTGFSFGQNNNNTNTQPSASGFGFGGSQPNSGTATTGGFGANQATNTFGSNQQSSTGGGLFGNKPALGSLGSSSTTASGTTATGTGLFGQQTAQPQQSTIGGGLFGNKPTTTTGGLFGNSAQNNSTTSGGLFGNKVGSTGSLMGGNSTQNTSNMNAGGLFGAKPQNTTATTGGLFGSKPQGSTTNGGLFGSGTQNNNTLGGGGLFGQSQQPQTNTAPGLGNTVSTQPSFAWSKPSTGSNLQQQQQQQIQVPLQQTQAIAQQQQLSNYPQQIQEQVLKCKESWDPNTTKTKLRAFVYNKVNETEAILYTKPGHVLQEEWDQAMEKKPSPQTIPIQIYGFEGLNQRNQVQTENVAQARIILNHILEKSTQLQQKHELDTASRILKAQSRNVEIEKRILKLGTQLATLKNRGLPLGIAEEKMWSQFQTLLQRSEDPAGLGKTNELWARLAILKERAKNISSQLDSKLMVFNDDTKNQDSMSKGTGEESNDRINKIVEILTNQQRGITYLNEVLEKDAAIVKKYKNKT

As for “S. cerevisiae Nup49 of the short scNup49-Nup57-Nsp1 complex (from UniProt Q02199 1-472) (domain or fragment)”, the stoichiometry N in test [1] and in test [2] was 1 each time.
In the case of “S. cerevisiae Nup57 of the short scNup49-Nup57-Nsp1 complex (from UniProt P48837 1-541) (domain or fragment)”, the stoichiometry N in test [3] and in test [4] was 1 each time.
